Protein stability index data for 94 variants are collected here from the supplement of paper PMC10567573.

The chains are these.
B1: CLINT1 (parent)
chain: VVTSAREHIYDLRSLENYHFVDEH
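Note: lentivirally expressed fusions sorted by FACS into six bins by GFP to DsRed ratio, PSI derived from sequencing read proportions per bin multiplied by bin number.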

Variants of B1 are the subject of this data set. Briefly: protein stability index of a GFP-peptide fusion (GPS, HEK-293T) (PSI 1-6); higher = more stable. The conditions noted are these: c terminus: a fixed tail appended.
For VVTSAREHIYNLRSLENYHFVDEH [D11N], the protein stability index is 2.63.
Regarding VVTSAREHIYHLRSLENYHFVDEH [D11H], the protein stability index turned out to be 2.3.
With VVTSAREHIYTLRSLENYHFVDEH [D11T] the figure was 2.17; with VVTSAREHIYYLRSLENYHFVDEH [D11Y], 2.02.
Take VVTSAREHIYSLRSLENYHFVDEH [D11S]: the protein stability index stood at 2.64.
With VVTSAREHIYWLRSLENYHFVDEH [D11W] the figure was 2.13; with VVTSAREHIYQLRSLENYHFVDEH [D11Q], 2.54.
In the case of VVTSAREHIYPLRSLENYHFVDEH [D11P], the protein stability index stood at 2.56.
With VVTSAREHIYLLRSLENYHFVDEH [D11L] the figure was 2.44; with VVTSAREHIYRLRSLENYHFVDEH [D11R], 2.62.
Then VVTSAREHIYKLRSLENYHFVDEH [D11K], with 2.13; and VVTSAREHIYMLRSLENYHFVDEH [D11M], with 2.62; and VVTSAREHIYILRSLENYHFVDEH [D11I], with 2.83.
Then VVTSAREHIYVLRSLENYHFVDEH [D11V], with 2.89; and VVTSAREHIYDLRSLANYHFVDEH [E16A], with 2.19; and VVTSAREHIYDLRSLDNYHFVDEH [E16D], with 2.77.
On to VVTSAREHIYDLRSLCNYHFVDEH [E16C], for which the protein stability index amounted to 1.93.
With VVTSAREHIYDLRSLFNYHFVDEH [E16F] the figure was 2.13; with VVTSAREHIYDLESLENYHFVDEH [R13E], 3.73.
With VVTSAREHIYDLTSLENYHFVDEH [R13T] the figure was 3.35; with VVTSAREHIYDLISLENYHFVDEH [R13I], 2.49; with VVTSAREHIYDLDSLENYHFVDEH [R13D], 3.59.
With VVTSAREHIYDLGSLENYHFVDEH [R13G] the figure was 2.7; with VVTSAREHIYDLSSLENYHFVDEH [R13S], 3.18; with VVTSAREHIYDLFSLENYHFVDEH [R13F], 1.73.
Regarding VVTSAREHIYDLPSLENYHFVDEH [R13P], the protein stability index is 3.58.
Turning to VVTSAREHIYDLQSLENYHFVDEH [R13Q], the protein stability index was 3.06.
With VVTSAREHIYDLCSLENYHFVDEH [R13C] the figure was 2.38; with VVTSAREHIYDLWSLENYHFVDEH [R13W], 2.08; with VVTSAREHIYDLYSLENYHFVDEH [R13Y], 1.95.
With VVTSAREHIYDLMSLENYHFVDEH [R13M] the figure was 2.9; with VVTSAREHIYDLVSLENYHFVDEH [R13V], 2.86; with VVTSAREHIYDLASLENYHFVDEH [R13A], 3.55.
On to VVTSAREHIYDLLSLENYHFVDEH [R13L], for which the protein stability index was 1.97.
With VVTSAREHIYDLKSLENYHFVDEH [R13K] the figure was 3.45; with VVTSAREHIYDLNSLENYHFVDEH [R13N], 3.35; with VVTSAREHIYDLHSLENYHFVDEH [R13H], 2.67.
On to VVTSAREHIYDSRSLENYHFVDEH [L12S], for which the protein stability index was determined as 3.13.
With VVTSAREHIYDARSLENYHFVDEH [L12A] the figure was 3.42; with VVTSAREHIYDMRSLENYHFVDEH [L12M], 3.39; with VVTSAREHIYDVRSLENYHFVDEH [L12V], 2.7.
With VVTSAREHIYDNRSLENYHFVDEH [L12N] the figure was 3.78; with VVTSAREHIYDGRSLENYHFVDEH [L12G], 3.78; with VVTSAREHIYDTRSLENYHFVDEH [L12T], 3.99.
Take VVTSAREHIYDPRSLENYHFVDEH [L12P]: the protein stability index was determined as 3.21.
On to VVTSAREHIYDIRSLENYHFVDEH [L12I], for which the protein stability index was found to be 2.89.
Then VVTSAREHIYDDRSLENYHFVDEH [L12D], with 4.08; and VVTSAREHIYDFRSLENYHFVDEH [L12F], with 2.61; and VVTSAREHIYDYRSLENYHFVDEH [L12Y], with 2.4.
In the case of VVTSAREHIYDQRSLENYHFVDEH [L12Q], the protein stability index turned out to be 4.09.
With VVTSAREHIYDHRSLENYHFVDEH [L12H], the protein stability index was 3.32.
With VVTSAREHIYDRRSLENYHFVDEH [L12R] the figure was 3.6; with VVTSAREHIYDCRSLENYHFVDEH [L12C], 2.61; with VVTSAREHIYDERSLENYHFVDEH [L12E], 4.03.
With VVTSAREHIYDKRSLENYHFVDEH [L12K] the figure was 3.78.
With VVTSAREHIYDWRSLENYHFVDEH [L12W] the figure was 2.7.
Turning to VVTSAREHIYDLRSWENYHFVDEH [L15W], the protein stability index was 2.56.
As for VVTSAREHIYDLRSKENYHFVDEH [L15K], the protein stability index was 3.36.
With VVTSAREHIYDLRSFENYHFVDEH [L15F] the figure was 2.4; with VVTSAREHIYDLRSCENYHFVDEH [L15C], 3.05; with VVTSAREHIYDLRSVENYHFVDEH [L15V], 3.04.
With VVTSAREHIYDLRSGENYHFVDEH [L15G] the figure was 3.56; with VVTSAREHIYDLRSTENYHFVDEH [L15T], 3.2; with VVTSAREHIYDLRSMENYHFVDEH [L15M], 2.62.
Then VVTSAREHIYDLRSHENYHFVDEH [L15H], with 3.58; and VVTSAREHIYDLRSNENYHFVDEH [L15N], with 3.1.
Take VVTSAREHIYDLRSSENYHFVDEH [L15S]: the protein stability index was found to be 2.95.
On to VVTSAREHIYDLRSDENYHFVDEH [L15D], for which the protein stability index turned out to be 3.8.
As to VVTSAREHIYDLRSIENYHFVDEH [L15I], the protein stability index worked out at 2.99.
For the variant VVTSAREHIYDLRSRENYHFVDEH [L15R], the protein stability index is 3.53.
Then VVTSAREHIYDLRSPENYHFVDEH [L15P], with 3.31.
Take VVTSAREHIYDLRSEENYHFVDEH [L15E]: the protein stability index was 3.46.
Regarding VVTSAREHIYDLRSQENYHFVDEH [L15Q], the protein stability index was 3.66.
With VVTSAREHIYDLRSYENYHFVDEH [L15Y] the figure was 2.91; with VVTSAREHIYDLRSAENYHFVDEH [L15A], 3.32; with VVTSAREHIYDLRGLENYHFVDEH [S14G], 3.45.
With VVTSAREHIYDLRLLENYHFVDEH [S14L] the figure was 2.72.
With VVTSAREHIYDLRCLENYHFVDEH [S14C] the figure was 2.24; with VVTSAREHIYDLRQLENYHFVDEH [S14Q], 2.31; with VVTSAREHIYDLRTLENYHFVDEH [S14T], 2.63.
As for VVTSAREHIYDLRKLENYHFVDEH [S14K], the protein stability index stood at 2.69.
Then VVTSAREHIYDLRALENYHFVDEH [S14A], with 3.52.
Then VVTSAREHIYDLRNLENYHFVDEH [S14N], with 3.07; and VVTSAREHIYDLRILENYHFVDEH [S14I], with 2.15.
Turning to VVTSAREHIYDLRELENYHFVDEH [S14E], the protein stability index is 2.87.
Consider VVTSAREHIYDLRRLENYHFVDEH [S14R], for which the protein stability index was found to be 2.44.
Turning to VVTSAREHIYDLRFLENYHFVDEH [S14F], the protein stability index was 2.57.
For the variant VVTSAREHIYDLRMLENYHFVDEH [S14M], the protein stability index came out at 2.49.
As for VVTSAREHIYDLRWLENYHFVDEH [S14W], the protein stability index came to 2.2.
Take VVTSAREHIYDLRVLENYHFVDEH [S14V]: the protein stability index came out at 2.11.
With VVTSAREHIYDLRDLENYHFVDEH [S14D] the figure was 3.24; with VVTSAREHIYDLRYLENYHFVDEH [S14Y], 2.02.
Then VVTSAREHIYDLRPLENYHFVDEH [S14P], with 2.24; and VVTSAREHIYDLRHLENYHFVDEH [S14H], with 2.25.
